The text below walks through data of the nanobody polyreactivity screen of Harvey et al. (2022).

A short description of the data set: yeast display, Sf9 membrane polyspecificity reagent, FACS + sequencing; frameworks hold sequencing errors. The gist of the method:
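Sorting gates, low and high (top ~1%), were placed on anti-HA fluorescence to track expression and on streptavidin fluorescence to track reagent binding. A clone's polyreactivity label is taken from the gate it came out of. The reagent was 10% biotinylated, detergent-solubilized Sf9 membrane, applied for 1 hour at 4 °C to galactose-induced yeast display cells.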
In the case of “QVQLVESGGGLVQAGGSLRLTCAASGIIFRGYAMGWYRQPPGKERELVAGITSGVRTYYADSVKGRFTISRDNAKNTVYLQMTSLKPEDTAVYYSNADAYGDDWKIYDYWGQGTQVTVSS”, the “polyreactivity (PSR sort gate)” value is on record as “low polyreactivity”. In the case of “QVQLVESGGGLVQAGGSLRLTCAASGIIFYPYAMGWYRQAPGKERELVAAISIGGGSTYYADSVKGRFTISRDNAKNTVYLQMNSLKPEDTAVYYCAAGTPYGILGYYYWGQGTQVTVSS”, the “polyreactivity (PSR sort gate)” value was “low polyreactivity”. As for “QVQLVESGGGLVQAGGSLRLTCAASGITFKYYAMGWYRQAPGKERELVAAIRGSGGGTNYADSVKGRFTISRDNAMNTVYLQMNSLKQEDSAVYYCAAANWRRNDYRYRFDYWGQGTQVTVSS”, the “polyreactivity (PSR sort gate)” value is given as “high polyreactivity”. Under “QVQLVESGGGLVQAGGSLRLTCAASGITFRKYAMGWYRQAPGKERELVAGIRYSGSSTYYADSVKGRFTISRDNAKNTVYLQMNSLKPEDTAVYYGATGGYVWYRSVNVWTRMDYWGQGTQVTVSS” stands “high polyreactivity”; under “QVQLVESGGGLVQAGGSLRLTCAASGITFYYYAMGWYRQAPAKERELVAAISFRGGSTYYADSVKARFTISRDNPKNTFYLQMNSLNPEDTAVYYCASVTSPSWYTWVTYDYWGQGTQVTVSS”, “high polyreactivity”. The same measure for “QVQLVESGGGLVQAGGSLRLTCAASGITLLYNAMGWYRQAPGKESELVAGITGRGGSTYYADSVKGRFTISRDNAKNTVYLQMNSLKPEDTAVYYCAATTDYRYVGRIVIRDEHWGQGTQVTVSS”: “low polyreactivity”. The same measure for “QVQLVESGGGLVQAGGSLRLTCAASGITLYNYAMGWYRQAPGKERELVAAISLSGGRTYYADSVKGRFTISRDNAKNTVYLQMNSLKPEDTAVYYCAADWLNSDPYNYWGQGTQVTVSS”: “low polyreactivity”; for “QVQLVESGGGLVQAGGSLRLTCAASGLFYAMGWYRQAPGKQRELVAAISSVGSTNYADSVKGRFTISRDNAKNTVYLQMNSLKPEDTAVYYCAAYFYTYPVDRYGSYYWGQGTQLTVSS”: “low polyreactivity”. “QVQLVESGGGLVQAGGSLRLTCAASGLIFRPYTMGWYRQAPGKERELVATISGSGASTNYADSVKGRFTNSRDNAKNTVYFQMNSLKPEDTSVYYCKGRSYSRMYYWGQGTQVTVSS”: the “polyreactivity (PSR sort gate)” value is listed as “high polyreactivity”.

Turning to “QVQLVESGGGLVQAGGSLRLTCAASGLTFAGYAMGWYRQAPGKERELVAYITTSGGSTHYADSVKGRFTISRDNAKNTVYLQMNSLKPEDTAVYYCAAEGYPGDNELIGAFDYWGQGTQVTVSS”, the “polyreactivity (PSR sort gate)” value was “low polyreactivity”.

On to “QVQLVESGGGLVQAGGSLRLTCAASGLTFGFNAMGWYRQAPGKERELVAAISSRGGSTYYADSVKGRFTISRDNAKNTVYLQMNSLKPEDTAVYYCAVRYYSPYGYWGQGTQVTVSS”, for which the “polyreactivity (PSR sort gate)” value is given as “low polyreactivity”. The same measure for “QVQLVESGGGLVQAGGSLRLTCAASGLTFGGNAMGWYRQAHRKERELVAAISWSDDTTDYADSVKGRFTISRDNAKNSVYLQMNSLNPEDTAIYYCAARLPFEHVDYWGQGTQVTVSS”: “low polyreactivity”; for “QVQLVESGGGLVQAGGSLRLTCAASGLTFTYYAMGWYRQAPGKERELVAAISASGGNTYYADSVKGRFTISRDNAKNTVYLQMNSLKPEDTAVFYCAAESSIYRGYGYSGQGTQVTVSS”: “high polyreactivity”; for “QVQLVESGGGLVQAGGSLRLTCAASGNIFYTYAMGWYRQPPGKERELVAGLSSDGSTTYADSVKGRFTISRDNAKNTVYLQMNSLNPEDTAVYYCPADITGILWYGYYYWGQGTQVTVSS”: “low polyreactivity”. The same measure for “QVQLVESGGGLVQAGGSLRLTCAASGNTFSPNAMGWYRHAPGKERELVAAIDSRDGITYYADSVKGRFTISRDNAKNTVYLQMNSLKPEDTAVYYCAADEWYGESNFWGQGTQVTVSS”: “low polyreactivity”. Under “QVQLVESGGGLVQAGGSLRLTCAASGNTFWDNAMRWYRQAPGKERELVAAIRWSTGSTHYADSVKGRFTISRDNAKNTVYLQMNSLKPEDTAVYDCAATDYYYYRDKYYGYVYWGQGTHVTVSS” stands “low polyreactivity”.
